# Source: US20250059285A1 (ARGENX, published 2025)
# T1: recombinant human Charcot-Leyden crystals (crystalline galectin-10) (human, UniProt Q05315 2-142, limits assumed)
# T1 sequence: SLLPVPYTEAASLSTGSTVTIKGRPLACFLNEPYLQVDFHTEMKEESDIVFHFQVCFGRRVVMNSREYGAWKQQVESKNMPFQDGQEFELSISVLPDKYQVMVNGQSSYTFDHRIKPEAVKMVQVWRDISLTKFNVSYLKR
# T2: human Gal10-His (human, UniProt Q05315 2-142, limits assumed)
# T2 construct: also called hGal10-His; human Gal10-His tagged; not shown: His tag
# T2 sequence: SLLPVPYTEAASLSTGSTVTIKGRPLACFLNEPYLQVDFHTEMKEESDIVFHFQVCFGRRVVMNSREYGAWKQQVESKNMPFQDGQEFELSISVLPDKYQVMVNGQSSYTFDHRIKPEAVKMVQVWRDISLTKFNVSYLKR
# Columns and labels:
# [1] = molecular target: T1, recombinant human Charcot-Leyden …; experiment: cell-based or functional assay
# human Gal10-His [2] = molecular target: T2, human Gal10-His; experiment: SPR, summary table, human Gal10
# [3] = molecular target: T3, cynomolgus Gal10-His (WGS isoform) (cynomolgus); experiment: SPR, summary table, cynomolgus_WGS Gal10
# T3 construct: also called cynomolgus antigen
# human Gal10-His [4] = molecular target: T2, human Gal10-His; experiment: SPR, overview table of lead Fab candidates
# human Gal10-His [5] = molecular target: T2, human Gal10-His; experiment: SPR Biacore 3000, hFab on captured human Gal10-His
# Text: For this purpose, two approaches were used. In the first, two concentrations of the selected clones were applied on cynomolgus (WGS isoform) Gal10-His capture on a CM5 chip coated with a monoclonal anti-His antibody. The second approach involved a serial dilution that was applied on human or cynomolgus (WGS isoform) Gal10-His in the same set-up.
# Further characterization of the cynomolgus cross-reactivity of these clones highlighted g24F02_N53A and g23H09.
# human Gal10-His [6] = molecular target: T2, human Gal10-His; experiment: summary of periplasmic extract screening (BLI or SPR)
# human Gal10-His [7] = molecular target: T2, human Gal10-His; experiment: SPR slope against calibrators on captured Gal10-His; sample 2 weeks at 37 C
# [8] = molecular target: T3, cynomolgus Gal10-His (WGS isoform); experiment: SPR Biacore 3000, hFab on cynomolgus Gal10-His (WGS) captured by anti-His CM5
# In short: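 Fab binding measured by SPR on Biacore 3000, with His-tagged human or cynomolgus (WGS isoform) Gal10 captured on an anti-His antibody-coated CM5 chip. Clones applied either at two concentrations (cynomolgus only) or as a serial dilution.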
# human Gal10-His [9] = molecular target: T2, human Gal10-His; experiment: SPR Biacore 3000, purified hFab (2 conc.) on Gal10-His captured by anti-His CM5
# human Gal10-His [10] = molecular target: T2, human Gal10-His; experiment: SPR Biacore 3000, hFab on captured human Gal10-His; column head prints (M), the text gives nM
# human Gal10-His [11] = molecular target: T2, human Gal10-His; experiment: competition ELISA on coated Gal10-His; hFab 20 ug/mL, competitor g7B07-hFab-Biot, streptavidin-HRP
# In short: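 Biotinylated g7B07 humanized Fab at sub-optimal concentration added to Gal10-coated plate pre-incubated with test hFab clones; percentage competition derived with motavizumab hFab set as 0% and g7B07 as 100%. Clone 1D11, binding the opposite Gal10 face including Tyr69, served as non-competing control.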
binder,measurement,setting,value
"g23H09 (Fab) (Fab, V domains shown, same VH/VL) VH: EVQLLESGGGLVQPGGSLRLSCAASGFTFRSYDMSWVRQAPGKGLEWVSAIAQFQHWTYYADSVKGRFTISRDNSKNTLYLQMNSLRAEDTAVYYCATTHGIGTLGFGSWGQGTLVTVSS VL: SYELTQPLSVSVALGQTARITCDGNNIGSKSAQWYQQKPGQAPVLVIYADEYRPEGIPERFSGSNSGNTATLTISRAQAGDEADYYCQVWDGSAAVFGGGTQLTVL","recGal10 crystal dissolution EC50 (T2 h), Assay 1, nebulized",[1],297 µg/mL
same,"recGal10 crystal dissolution EC50 (T2 h), Assay 1, stressed (4 W at 37 C)",[1],361 µg/mL
same,"recGal10 crystal dissolution EC50 (T2 h), Assay 1, unstressed (T0)",[1],252 µg/mL
same,"recGal10 crystal dissolution EC50 (T2 h), Assay 2, nebulized",[1],209 µg/mL
same,"recGal10 crystal dissolution EC50 (T2 h), Assay 2, stressed (4 W at 37 C)",[1],191 µg/mL
same,"recGal10 crystal dissolution EC50 (T2 h), Assay 2, unstressed (T0)",[1],190 µg/mL
same,Kd,human Gal10-His [2],5.34 nM
same,koff,human Gal10-His [2],0.0031 s⁻¹
same,Kd,[3],9.9 nM
same,koff,[3],0.0095 s⁻¹
same,Kd,human Gal10-His [4],5.3 nM
same,koff,human Gal10-His [4],0.0031 s⁻¹
same,fold better affinity than g7B07,human Gal10-His [5],1.7 fold
same,fold better off-rate than g7B07,human Gal10-His [5],1.9 fold
same,"kd, fold compared to g7B07 (BLI or SPR)",human Gal10-His [6],2.5 fold
same,% Relative Activity (RA) on Biacore,human Gal10-His [7],78%
same,Amplitude R0,[8],589 RU
same,koff,[8],0.0095 s⁻¹
same,kon,[8],950000 M⁻¹ s⁻¹
same,Kd,human Gal10-His [9],3.9 nM
same,kd-fold drop vs g7B07,human Gal10-His [9],1.8 fold
same,koff,human Gal10-His [9],0.0025 s⁻¹
same,kon,human Gal10-His [9],650000 M⁻¹ s⁻¹
same,Kd,human Gal10-His [10],5.34 nM
same,% Competition against g7B07-Biot,human Gal10-His [11],94.3%
same,Mean OD value,human Gal10-His [11],0.31 OD
